Laboratory results published in the RNAGym collection of RNA variant scans (doi:10.7554/elife.80360).

B1: CPEB3 Ribozyme (parent)
chain: GGGGGCCACAGCAGAAGCGUUCACGUCGCGGCCCCUGUCAGAUUCUGGUGAAUCUGCGAAUUCUGCUGU

Variants of: B1
Assay: self-cleavage, relative activity (ratio to wild type); higher = more cleavage; co-transcriptional

Row | Variant | self-cleavage
1 | C33A A60G | 0.378
2 | C33A A60U | 0.38
3 | C34A G68C | 0.954
4 | C34A G68A | 0.935
5 | C34A G68U | 0.956
6 | C34G A59G | 0.538
7 | C34G A59U | 0.234
8 | C34A G47U | 0.914
9 | C34A G47C | 0.887
10 | C34A G47A | 0.915
11 | C34A U43G | 0.479
12 | C34A U43A | 0.514
13 | C34A G50U | 0.8
14 | C33G U53A | 0.395
15 | C33G U53G | 0.32
16 | C34G G48C | 0.722
17 | C34G G48U | 0.753
18 | C34G G48A | 0.765
19 | C33A C34G | 0.229
20 | C33A C34A | 0.331
21 | C33U U69G | 1.06

Row | Variant | self-cleavage
22 | C33U U69A | 1.01
23 | C33U U69C | 1.05
24 | C33A G37U | 0.12
25 | C33A G37A | 0.26
26 | C33G A60C | 0.415
27 | C33G A60U | 0.328
28 | C33G A60G | 0.372
29 | C34A A42C | 0.46
30 | C33U G37A | 0.265
31 | C33U G37C | 0.242
32 | C34G G50U | 0.839
33 | C34G G50C | 0.64
34 | C33G U46G | 0.604
35 | C33G U46C | 0.783
36 | C33G G48C | 0.629
37 | C33G G48U | 0.579
38 | C33G G48A | 0.648
39 | C34G C63G | 0.338
40 | C34A U55G | 0.357
41 | C34A U55C | 0.264
42 | C33G A40U | 0.273

Row | Variant | self-cleavage
43 | C33G A40C | 0.324
44 | C33G U38A | 0.582
45 | C33A U53A | 0.392
46 | C33A U53C | 0.48
47 | C33A U53G | 0.346
48 | C33U A40U | 0.906
49 | C33U A40G | 0.952
50 | C33U A40C | 0.619
51 | C33A G47A | 0.925
52 | C33A G47C | 0.946
53 | C34A U53C | 0.565
54 | C34A U53A | 0.409
55 | C34A U53G | 0.331
56 | C34G A51C | 0.504
57 | C34G A51G | 0.625
58 | C34G A51U | 0.671
59 | C34G U44G | 0.446
60 | C34G U44C | 0.578
61 | C34A G56U | 0.679
62 | C34A G56C | 0.438
63 | C34G G56A | 0.579

Row | Variant | self-cleavage
64 | C34G G56U | 0.538
65 | C33U U67G | 0.982
66 | C33U U67A | 0.971
67 | C33U G68C | 1.02
68 | C33A U55C | 0.438
69 | C33A U55G | 0.319
70 | C33A U55A | 0.486
71 | C33A G58C | 0.837
72 | C33A G58U | 0.881
73 | C33U G65U | 0.749
74 | C33G U44C | 0.576
75 | C33G U44G | 0.333
76 | C34A U36A | 0.229
77 | C33U C45A | 0.987
78 | C33U C45G | 0.98
79 | C33U U53A | 0.932
80 | C33U U53G | 0.727
81 | C33U U53C | 0.861
82 | C33A C57A | 0.345
83 | C33A C57G | 0.263
